B1: humanized anti-tip monoclonal antibody, heavy chain SEQ ID NO: 3 and light chain SEQ ID NO: 7 (antibody, V domains shown)
VH: EVKLVQSGAEVKKPGASVKVSCKASGFTFRTYAMSWVRQAPGQRLEWVATIGSDRRHTYYPDKFQGRVTITRDNAKNTLYMELSSLRSEDTAVYYCVGPYDGYYGEFDYWGQGTLVTVSS
VL: DVVMTQSPLSLPVTLGQPASISCRSSQSLLDSDGKTFLNWLQQRPGQSPRRLIYLVSKLDSGVPDRFSGSGSGTDFTLKISRVEAEDVGVYYCWQGTHFPYTFGQGTKLEIKR
notes: also called H10212 (1F8.F1 Humanized HC3) + L10210 (1F8.F1 Humanized LC1)
B2: humanized anti-tip monoclonal antibody, heavy chain SEQ ID NO: 1 and light chain SEQ ID NO: 7 (antibody, V domains shown)
VH: EVKLVESGGGLVQPGGSLRLSCAASGFTFRTYAMSWVRQAPGKGLEWVATIGSDRRHTYYPDSVKGRFTISRDNAKNTLYLQMNSLRAEDTAVYYCVGPYDGYYGEFDYWGQGTLVTVSS
VL: B1 VL
notes: also called HuTipMab; TP-21949
B3: humanized anti-tip monoclonal antibody, heavy chain SEQ ID NO: 2 and light chain SEQ ID NO: 7 (antibody, V domains shown)
VH: B2 VH with K3Q, A75S
VL: B1 VL
notes: also called H10211 (1F8.F1 Humanized HC2) + L10210 (1F8.F1 Humanized LC1)
B4: humanized anti-tip monoclonal antibody, heavy chain SEQ ID NO: 2 and light chain SEQ ID NO: 8 (antibody, V domains shown)
VH: B2 VH with K3Q, A75S
VL: B1 VL with L59R
notes: also called H10211 (1F8.F1 Humanized HC2) + L10211 (1F8.F1 Humanized LC2)
B5: humanized anti-tip monoclonal antibody, heavy chain SEQ ID NO: 1 and light chain SEQ ID NO: 8 (antibody, V domains shown)
VH: B2 VH
VL: B1 VL with L59R
notes: also called H10210 (1F8.F1 Humanized HC1) + L10211 (1F8.F1 Humanized LC2)

Changes are numbered by the printed parent chain.

One assay addresses T1, tip-chimeric peptide IhfA5-mIhfB4NTHI (nontypeable Haemophilus influenzae …).
T1 construct: also called IHF(NTHI) tip chimeric peptide; IHFNTHI tip chimeric peptide
T1 peptide: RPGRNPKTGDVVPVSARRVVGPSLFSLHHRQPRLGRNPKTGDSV
The assay can be described thus: direct ELISA #1, peptide coated (curves not reaching equilibrium).
In turn, B1 yielded an EC50 of 0.075 mg/L.
As to B2, the EC50 stood at 0.06 mg/L.
The molecule B3 showed an EC50 of 0.049 mg/L.
In the case of B4, the EC50 came out at 0.055 mg/L.
B5 returned an EC50 of 0.066 mg/L.

Another assay has as its target T1, tip-chimeric peptide IhfA5-mIhfB4NTHI. Nature of the assay: SPR Biacore 3000, peptide immobilized, HuMab as analyte. (SPR reads the build-up and loss of mass on a sensor chip optically.)
For B1, the Kd is 0.008 µM, the koff amounted to 0.0004 s⁻¹ and the kon came out at 48000 M⁻¹ s⁻¹.
In the same order, the values of B2 are 0.007 µM, 0.00022 s⁻¹ and 31000 M⁻¹ s⁻¹.
For B3, the Kd worked out at 0.144 µM, the koff was found to be 0.0026 s⁻¹ and the kon stood at 18000 M⁻¹ s⁻¹.
The matching figures for B4: 0.013 µM, 0.00028 s⁻¹ and 22000 M⁻¹ s⁻¹.
Turning to B5, the equilibrium dissociation constant (Kd) stood at 0.0003 µM, the koff came out at 1.1e-05 s⁻¹ and the kon came to 42000 M⁻¹ s⁻¹.

Another assay has the same target. Nature of the assay: direct ELISA #2, peptide coated (curves reaching equilibrium).
B1 had an EC50 of 0.0858 mg/L.
Molecule B2 returned an EC50 of 0.0704 mg/L.
Same read-out and setting: the result for B3 reads 0.062 mg/L; that for B4, 0.0402 mg/L.
B5: the EC50 came to 0.0644 mg/L.

The next assay addresses T2, native IHFNTHI (integration host factor of nontypeable Haemophilus influenzae) (nontypeable Haemophilus influenzae …, UniProt P43723 1-96; P43724 1-94).
T2 construct: also called NTHI IHF
T2 sequence 1: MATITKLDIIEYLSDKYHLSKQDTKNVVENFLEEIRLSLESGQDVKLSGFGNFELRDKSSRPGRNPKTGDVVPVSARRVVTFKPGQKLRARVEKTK
T2 sequence 2: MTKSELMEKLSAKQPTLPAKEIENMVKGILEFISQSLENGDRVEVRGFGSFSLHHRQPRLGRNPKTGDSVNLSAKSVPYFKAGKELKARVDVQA
Nature of the assay: SPR Biacore 3000, HuMab immobilized, IHFNTHI as analyte.
B1 had a Kd of 0.006 µM, a koff of 0.0004 s⁻¹ and a kon of 66000 M⁻¹ s⁻¹.
The matching figures for B2: 0.01 µM, 1.4e-05 s⁻¹ and 1400 M⁻¹ s⁻¹.
Molecule B3 yielded a Kd of 0.0006 µM, a koff of 0.0004 s⁻¹ and a kon of 640000 M⁻¹ s⁻¹.
Regarding B4, the Kd turned out to be 0.009 µM, the koff came to 0.00059 s⁻¹ and the kon amounted to 70000 M⁻¹ s⁻¹.
Turning to B5, the Kd stood at 0.0002 µM, the koff turned out to be 0.00032 s⁻¹ and the kon was found to be 1.4e+06 M⁻¹ s⁻¹.

For a further assay, the target named is T1, tip-chimeric peptide IhfA5-mIhfB4NTHI. The assay can be described thus: SPR Biacore 3000, HuMab immobilized, peptide as analyte.
As for B1, binding was put at a Kd of 0.029 µM, the koff came to 0.0016 s⁻¹ and the kon amounted to 54000 M⁻¹ s⁻¹.
B2 yielded a Kd of 0.076 µM, a koff of 0.00034 s⁻¹ and a kon of 4500 M⁻¹ s⁻¹.
The matching figures for B3: 0.527 µM, 0.00015 s⁻¹ and 280 M⁻¹ s⁻¹.
In the same order, the values of B4 are 0.257 µM, 7.7e-05 s⁻¹ and 300 M⁻¹ s⁻¹.
With B5, the Kd turned out to be 0.021 µM, the koff turned out to be 0.00037 s⁻¹ and the kon is 17000 M⁻¹ s⁻¹.

The target in the next assay is T2, native IHFNTHI (integration host factor …). Nature of the assay: SPR Biacore 3000, IHFNTHI immobilized, HuMab as analyte.
For the molecule B1, the equilibrium dissociation constant (Kd) turned out to be 0.825 µM, the koff turned out to be 0.00011 s⁻¹ and the kon came out at 140 M⁻¹ s⁻¹.
The matching figures for B2: 0.017 µM, 9e-05 s⁻¹ and 5400 M⁻¹ s⁻¹.
With B3, the Kd was found to be 4.4 µM and the koff is 0.0014 s⁻¹.
As to B4, the Kd amounted to 0.354 µM, the koff turned out to be 0.00015 s⁻¹ and the kon was found to be 420 M⁻¹ s⁻¹.
In turn, B5 registered a Kd of 0.04 µM, a koff of 0.006 s⁻¹ and a kon of 150000 M⁻¹ s⁻¹.

As a reminder, the EC50 is the midpoint of the concentration-response curve. Low readings indicate a more potent agent, high ones a less potent agent. As a reminder, the Kd is a measure of binding affinity in units of concentration. A word on the koff: it is a measure of how fast the partners let go of each other. Read a low koff as a long-lived complex. For orientation: kon means the second-order rate constant of association. High values mean fast association, low ones slow association.

The values are drawn from patent US20210206841A1 (RESEARCH INSTITUTE AT NATIONWIDE CHILDREN S HOSPITAL, published 2021).
